Assay results reported in patent US20250076311A1 (Chugai, published 2025).
Blank lines part the entries; values can stand above or below the binder they belong to.

Columns and labels:
[1] = biological target: T1, cynomolgus monkey FcγRIIb extracellular domain with C-terminal His-tag (cynomolgus monkey); experiment: SPR (Biacore), antibody captured, FcgR analyte
T1 construct: also called cyno FcgRIIb; cynoFcγRIIb
T1 chain: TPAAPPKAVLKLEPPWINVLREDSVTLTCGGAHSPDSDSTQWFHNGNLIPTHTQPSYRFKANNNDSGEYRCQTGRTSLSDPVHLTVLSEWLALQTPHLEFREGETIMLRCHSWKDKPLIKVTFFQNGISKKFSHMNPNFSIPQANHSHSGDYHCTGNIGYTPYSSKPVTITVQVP

[2] = biological target: T2, human FcγRIIaH extracellular domain, His-tagged (human, UniProt P12318 34-217); experiment: SPR (BIACORE), antibody captured, FcγR analyte, 25 C; KD of SG1 divided by KD of variant
T2 construct: also called human FcγRIIa (type H); FcgRIIaH
T2 sequence: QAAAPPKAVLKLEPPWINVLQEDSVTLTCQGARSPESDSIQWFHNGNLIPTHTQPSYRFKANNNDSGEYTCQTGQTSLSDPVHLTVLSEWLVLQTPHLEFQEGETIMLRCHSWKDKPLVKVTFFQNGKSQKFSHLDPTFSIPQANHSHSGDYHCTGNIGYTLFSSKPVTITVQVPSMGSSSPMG

[3] = biological target: T3, human FcγRIIIaV extracellular domain, His-tagged (human, UniProt P08637 17-208); experiment: as above
T3 construct: also called human FcγRIIIa (V158); FcgRIIIaV

[4] = biological target: T4, human FcγRIIb extracellular domain, His-tagged (human, UniProt P31994 43-217); experiment: as above
T4 construct: also called human FcgRIIb; FcgRIIb (human)
T4 sequence: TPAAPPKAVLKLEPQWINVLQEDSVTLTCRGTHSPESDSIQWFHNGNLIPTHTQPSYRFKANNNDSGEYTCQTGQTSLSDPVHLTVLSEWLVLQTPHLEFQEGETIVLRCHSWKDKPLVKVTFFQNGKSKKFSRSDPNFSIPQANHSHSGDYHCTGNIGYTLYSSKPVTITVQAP

Mouse latent myostatin [5] = biological target: T5, Mouse latent myostatin (mouse, UniProt O08689 26-267; O08689 268-376, limits assumed); experiment: SPR (Biacore T200), 37C, pH 7.4, antibody captured on ProA/G
T5 sequence 1: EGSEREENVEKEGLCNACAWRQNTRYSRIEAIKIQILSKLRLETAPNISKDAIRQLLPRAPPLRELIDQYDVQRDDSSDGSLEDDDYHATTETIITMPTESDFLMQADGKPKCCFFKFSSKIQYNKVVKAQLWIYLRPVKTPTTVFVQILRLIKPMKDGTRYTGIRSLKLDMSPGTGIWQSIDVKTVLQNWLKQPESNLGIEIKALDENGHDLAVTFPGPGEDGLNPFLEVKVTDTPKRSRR
T5 sequence 2: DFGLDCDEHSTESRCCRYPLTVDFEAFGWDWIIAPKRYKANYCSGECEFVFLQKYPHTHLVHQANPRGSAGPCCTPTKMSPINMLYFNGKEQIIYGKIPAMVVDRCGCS
Protocol: (§1) ProA/G (Pierce) was immobilized onto all flow cells of a CM4 chip using an amine coupling kit (GE Healthcare). All antibodies and analytes were prepared in ACES pH7.4 or pH5.8 buffer containing 20 mM ACES, 150 mM NaCl, 1.2 mM CaCl₂, 0.05% TWEEN® 20, 0.005% NaN3. […] The sensor surface was regenerated each cycle with 10 mM Glycine HCl pH1.5. Binding affinity was determined by processing and fitting the data to a 1:1 binding model using BIACORE® T200 Evaluation software, version 2.0 (GE Healthcare).

Mouse latent myostatin [6] = biological target: T5, Mouse latent myostatin; experiment: SPR (Biacore T200), 37C, pH 5.8, antibody captured on ProA/G
Protocol: as §1

T3 sequence (P08637 17-208 F176V): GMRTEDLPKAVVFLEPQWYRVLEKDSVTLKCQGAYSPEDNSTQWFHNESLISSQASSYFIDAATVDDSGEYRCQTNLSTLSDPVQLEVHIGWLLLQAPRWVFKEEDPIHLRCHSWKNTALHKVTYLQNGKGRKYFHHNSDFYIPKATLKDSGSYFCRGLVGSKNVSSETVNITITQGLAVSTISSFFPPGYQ

B1: M103205H795-MY476/M103202L889-SK1 (antibody)
chain 1: QVTLKESGPVLVKPTETLTLTCTVSGIDLSHDDISWVRQAPGKGLEWVGIISYAGSTYYASWAKGRLTISKDTSKNQVVLTMTNMDPVDTATYYCARGVPAYSHGGDLWGQGTLVTVSSASTKGPSVFPLAPSSKSTSGGTAALGCLVKDYFPEPVTVSWNSGALTSGVHTFPAVLQSSGLYSLSSVVTVPSSSLGTQTYICNVNHKPSNTKVDKKVEPKSCDKTHTCPPCPYPELLTGPSVFLFPPKPKDTLMISRTPEVTCVVVDVSDEDPEVKFNWYVDGVEVHNAKTKPREEQYNSTYRVVSVLTVLHQDWLNGKEYKCKVSNKALPKPIEKTISKAKGQPREPQVYTLPPSREEMTKNQVSLTCLVKGFYPSDIAVEWESNGQPENNYKTTPPVLDSDGSFFLYSKLTVDKSRWQQGNVFSCSVMHEALHNHYTQKSLSLSP
chain 2: DIVMTQSPATLSLSPGERATLSCTSSQSVYHANWLSWFQQKPGQPPKLLIYWASTLAYGVPSRFSGSGSGTDFTLTISSLQPEDAATYYCAGGYGGGRYAFGQGTKVEIKRTVAAPSVFIFPPSDEQLKSGTASVVCLLNNFYPREAKVQWKVDNALQSGNSQESVTEQDSKDSTYSLSSTLTLSKADYEKHKVYACEVTHQGLSSPVTKSFNRGEC
Kd [1]: 0.39 µM

B2: M103205H795-MY450/M103202L889-SK1 (antibody, human IgG1, kappa, name in EU numbering)
heavy: QVTLKESGPVLVKPTETLTLTCTVSGIDLSHDDISWVRQAPGKGLEWVGIISYAGSTYYASWAKGRLTISKDTSKNQVVLTMTNMDPVDTATYYCARGVPAYSHGGDLWGQGTLVTVSSASTKGPSVFPLAPSSKSTSGGTAALGCLVKDYFPEPVTVSWNSGALTSGVHTFPAVLQSSGLYSLSSVVTVPSSSLGTQTYICNVNHKPSNTKVDKKVEPKSCDKTHTCPPCPAMELLTGPSVFLFPPKPKDTLMISRTPEVTCVVVDVSDEDPEVKFNWYVDGVEVHNAKTKPREEQYNSTYRVVSVLTVLHQDWLNGKEYKCKVSNKALPKPIEKTISKAKGQPREPQVYTLPPSREEMTKNQVSLTCLVKGFYPSDIAVEWESNGQPENNYKTTPPVLDSDGSFFLYSKLTVDKSRWQQGNVFSCSVMHEALHNHYTQKSLSLSP
light: DIVMTQSPATLSLSPGERATLSCTSSQSVYHANWLSWFQQKPGQPPKLLIYWASTLAYGVPSRFSGSGSGTDFTLTISSLQPEDAATYYCAGGYGGGRYAFGQGTKVEIKRTVAAPSVFIFPPSDEQLKSGTASVVCLLNNFYPREAKVQWKVDNALQSGNSQESVTEQDSKDSTYSLSSTLTLSKADYEKHKVYACEVTHQGLSSPVTKSFNRGEC
KD fold (SG1 = 1) [2]: 5.3 fold
KD fold (SG1 = 1) [3]: 0.2 fold
KD fold (SG1 = 1) [4]: 9.8 fold

The remaining lines, values ahead:

Kd (Mouse latent myostatin [5]): 0.000314 µM
B3: MS1032LO10-SG1 (antibody, human IgG1, kappa, V domains shown)
VH: QVTLKESGPVLVKPTETLTLTCTVSGIDLSHTDISWVRQAPGKGLEWVGIISYAGKTYYASWAKKRLTISKDTSKNQVVLTMTNMDPVDTATYYCARGVPAYSHGGDLWGQGTLVTVSS
VL: DIVMTQSPATLSLSPGERATLSCTSSQSVYHANWLSWFQQKPGQPPKLLIYWASTLAYGVPSRFSGSGSGTDFTLTISSLQPEDAATYYCAGGYGGGRYAFGQGTKVEIKR

Kd (Mouse latent myostatin [6]): 0.0294 µM
B4: MS1032LO21-SG1 (antibody, human IgG1, kappa, V domains shown)
VH: QVTLKESGPVLVKPTETLTLTCKVSGIDLSHDDISWVRQAPGKGLEWVSIISYAGSTYYASWAKGRLTISKDTSKNQVVLTMTNMDPVDTATYYCARGVPAYSHGGDLWGQGTLVTVSS
VL: DIVMTQSPATLSLSPGERATLSCTTSQSVYHENWLSWFQQKPGQPPKLLIYWASTLAYGVPSRFSGSGSGTDFTLTISSLQPEDAATYYCAGGYGGGRYAFGQGTKVEIKR
